“Also recorded” adds a separate entry of the source.
System: K562 cells
Test: Proliferation/viability of transfected K562 cells (trypan blue exclusion)
Format: cell-based, human
Conditions: for proliferation/viability of K562 cells: trypan blue exclusion
Description: K562 cells, human leukemia Bcr-Abl^+ cells (gifted from Kojo Elenitoba-Johnson, University of Michigan), were grown in RPMI 1640 media supplemented with 10% FBS, 1% penicillin-streptomycin-glutamine, and 0.1% gentamicin (complete medium). […] Transfections were carried out two days following cell passaging. Then, 2.0×10^6 cells were collected and transfected with 6 μg pf pEGFP, pEGFP-CC^mut3, pmCherry, or pmCherry-CC^mut3 according to the Cell Line Nucleofector Kit V protocol, program T-013, using the Amaxa Nucleofector II (Lonza Group, Basel, Switzerland).
Cell counts were performed using a standard light microscope.
Two days following cell passaging, 2.0×10^6 cells were collected by centrifugation at 500×g for 10 min for each transfection group. Following cell collection, 6 lig DNA (pEGFP, pEGFP-CC, pEGFP-CCmut3, pEGFP-Helix2WT, pEGFP-Helix2mut3, pmCherry, pmCherry-CCmut3, or pmCherry-CappedHelix2mut3) was transfected into cells according to the Cell Line Nucleofector® Kit V protocol (program T-013) using the Amaxa Nucleofector II (Lonza Group, Basel, Switzerland). Following transfection, the DNA/cell mixture was added to 10 mL Complete RPMI 1640 media and allowed to incubate at 37° C. for 24, 48, or 72 h until analysis, depending on the assay.
Forty-eight or 72 h following transfection, 100 μL of treated K562 or Ba/F3-p210 cells was mixed with 100 μL trypan blue solution (Life Technologies). The numbers of viable cells (those impermeable to the trypan blue dye) from four different quadrants in an INCYTO™ C-CHIP™ Neubauer hemacytometer (VWR International, Radnor, Pa., USA) were counted using a standard light microscope. Quadrant counts were then averaged to obtain the number of viable cells per mL. For experiments using the Helix2mut3 construct, counts were performed on one aliquot per transfection (n=3 in replicate). In experiments involving the CappedHelix2mut3 construct, counts were performed three times using separate 100 pt aliquots from one transfection (n=1 in triplicate).

B1: CCmut3: modified Bcr-Abl coiled-coil domain (residues 1-72) with mutations C38A, K39E, S41R, L45D, E48R, Q60E (protein)
chain: MVDPVGFAEAWKAQFPDSEPPRMELRSVGDIEQELERAEARIRRDEQRVNQERFRMIYLETLLAKEKKSYDR
48 h following transfection, vs EGFP control, n=3
  proliferation/viability of K562 cells: statistically significant decrease in the proliferation of K562 cells
72 h following transfection, vs mCherry control, n=1
  proliferation/viability of K562 cells: potent inhibition of cell proliferation
transfected, vs EGFP and WT control (FIG. 9)
  inhibition of cell proliferation of K562 cells: inhibits proliferation; also recorded: significantly greater inhibition

Source: US10494417B2, “Peptide inhibitors of BCR-ABL oligomerization” (University of Utah Research Foundation, priority 2014, dated 2019)
